# Results reported in paper PMC10786891, “Massively parallel profiling of RNA-targeting CRISPR-Cas13d”.
# Positions count from the first letter of the chain named. Numbers in names are those of the source.
# T1: EsCas13d, nuclease-dead (Eubacterium siraeum, UniProt B0MS50, R295A;H300A;R849A;H854A)
# T1 sequence: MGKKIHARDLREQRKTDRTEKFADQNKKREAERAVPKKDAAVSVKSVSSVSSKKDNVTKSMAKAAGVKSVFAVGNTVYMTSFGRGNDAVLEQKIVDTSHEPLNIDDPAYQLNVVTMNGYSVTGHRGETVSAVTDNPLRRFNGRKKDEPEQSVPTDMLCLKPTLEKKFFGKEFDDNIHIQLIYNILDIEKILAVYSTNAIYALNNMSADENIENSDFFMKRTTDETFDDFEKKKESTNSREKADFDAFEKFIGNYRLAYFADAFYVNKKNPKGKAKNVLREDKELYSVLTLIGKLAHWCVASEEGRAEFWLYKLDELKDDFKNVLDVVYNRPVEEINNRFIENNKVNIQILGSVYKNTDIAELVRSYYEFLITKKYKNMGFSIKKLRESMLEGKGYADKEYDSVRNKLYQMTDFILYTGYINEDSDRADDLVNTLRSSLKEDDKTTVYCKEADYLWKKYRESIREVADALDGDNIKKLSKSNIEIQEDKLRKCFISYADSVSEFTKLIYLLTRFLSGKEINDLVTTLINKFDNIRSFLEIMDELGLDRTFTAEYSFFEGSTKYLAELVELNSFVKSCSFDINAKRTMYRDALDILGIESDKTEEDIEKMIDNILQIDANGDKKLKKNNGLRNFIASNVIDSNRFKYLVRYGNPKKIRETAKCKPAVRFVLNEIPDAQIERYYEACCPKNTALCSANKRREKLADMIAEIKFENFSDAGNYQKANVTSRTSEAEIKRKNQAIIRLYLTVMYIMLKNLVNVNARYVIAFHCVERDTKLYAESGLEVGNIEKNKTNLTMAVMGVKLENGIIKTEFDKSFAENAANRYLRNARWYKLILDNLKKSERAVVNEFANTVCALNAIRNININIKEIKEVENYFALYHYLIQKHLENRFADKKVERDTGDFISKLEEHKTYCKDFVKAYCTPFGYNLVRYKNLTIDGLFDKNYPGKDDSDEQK
# B1: target 1 insG 3' of 6 (mixed)
# RNA 1: CACCCGUGCAAAAAUGCAGGGGUCUAAAACUGAGCGGAUAACCUCUCUAUGG
# RNA 2: GGGAAUGGAUCCACAUCUACGAAUUCGUACCAUAGAGAGGUUAUCCGGCUCACCGAGAUCGGAAGAGCACACGU
# B2: target 1 C2A,C7G (mixed)
# RNA 1: B1 RNA 1
# RNA 2: GGGAAUGGAUCCACAUCUACGAAUUCGUACCAUAGAGAGGUUAUGCGCUAACCGAGAUCGGAAGAGCACACGU
# B3: target 1 insC 3' of 19,insU 3' of 9 (mixed)
# RNA 1: B1 RNA 1
# RNA 2: GGGAAUGGAUCCACAUCUACGAAUUCGUACCAUCAGAGAGGUUAUUCCGCUCACCGAGAUCGGAAGAGCACACGU
# B4: target 1 insA 3' of 12,insA 3' of 3 (mixed)
# RNA 1: B1 RNA 1
# RNA 2: GGGAAUGGAUCCACAUCUACGAAUUCGUACCAUAGAGAGGAUUAUCCGCUACACCGAGAUCGGAAGAGCACACGU
# B5: target 1 insC 3' of 19,insC 3' of 11 (mixed)
# RNA 1: B1 RNA 1
# RNA 2: B3 RNA 2 with U43C, A44U, U45A
# B6: target 1 A1U,G15C (mixed)
# RNA 1: B1 RNA 1
# RNA 2: B2 RNA 2 with G37C, G45C, A50C, A51U
# B7: target 1 insA 3' of 10,insU 3' of 5 (mixed)
# RNA 1: B1 RNA 1
# RNA 2: B4 RNA 2 with A41U, U43A, C49U, U50C, A51U
# B8: target 1 insU 3' of 22 (mixed)
# RNA 1: B1 RNA 1
# RNA 2: GGGAAUGGAUCCACAUCUACGAAUUCGUACUCAUAGAGAGGUUAUCCGCUCACCGAGAUCGGAAGAGCACACGU
# B9: target 1 U10C,A16C (mixed)
# RNA 1: B1 RNA 1
# RNA 2: B2 RNA 2 with A36C, U42C, G45C, A50C
# B10: target 1 G5U,A16C (mixed)
# RNA 1: B1 RNA 1
# RNA 2: B2 RNA 2 with A36C, G45C, G47U, A50C
# B11: target 1 insC 3' of 13,insA 3' of 11 (mixed)
# RNA 1: B1 RNA 1
# RNA 2: GGGAAUGGAUCCACAUCUACGAAUUCGUACCAUAGAGAGCGUAUAUCCGCUCACCGAGAUCGGAAGAGCACACGU
# B12: target 1 U19A (mixed)
# RNA 1: B1 RNA 1
# RNA 2: B2 RNA 2 with U33A, G45C, A50C
# B13: target 1 C7G,G13A (mixed)
# RNA 1: B1 RNA 1
# RNA 2: B2 RNA 2 with G39A, A50C
# B14: target 1 insG 3' of 22,insA 3' of 6 (mixed)
# RNA 1: B1 RNA 1
# RNA 2: B3 RNA 2 with C31G, A32C, U33A, C34U, U46C, C48A
# B15: target 1 insG 3' of 18,insA 3' of 2 (mixed)
# RNA 1: B1 RNA 1
# RNA 2: B4 RNA 2 with A36G, G37A, A38G, G39A, A41G, A51C, C52A
# B16: target 1 C6G,C7G (mixed)
# RNA 1: B1 RNA 1
# RNA 2: B2 RNA 2 with C46G, A50C
# B17: target 1 insA 3' of 19,insG 3' of 4 (mixed)
# RNA 1: B1 RNA 1
# RNA 2: B3 RNA 2 with C34A, U46C, C48G, G49C, C50G
# B18: target 1 insA 3' of 10,insU 3' of 7 (mixed)
# RNA 1: B1 RNA 1
# RNA 2: B11 RNA 2 with C40G, G41U, U44A, A45U, U46C, C47U
# B19: target 1 U11C,C21A (mixed)
# RNA 1: B1 RNA 1
# RNA 2: B2 RNA 2 with C31A, U41C, G45C, A50C
# B20: target 1 C4U,U10C (mixed)
# RNA 1: B1 RNA 1
# RNA 2: B2 RNA 2 with U42C, G45C, C48U, A50C
# B21: target 1 U8G,G12C (mixed)
# RNA 1: B1 RNA 1
# RNA 2: B2 RNA 2 with G40C, U44G, G45C, A50C
# B22: target 1 A9C,C21U (mixed)
# RNA 1: B1 RNA 1
# RNA 2: B2 RNA 2 with C31U, A43C, G45C, A50C
# B23: target 1 G12A,A18C (mixed)
# RNA 1: B1 RNA 1
# RNA 2: B2 RNA 2 with A34C, G40A, G45C, A50C
# B24: target 1 insU 3' of 17,insU 3' of 6 (mixed)
# RNA 1: B1 RNA 1
# RNA 2: B3 RNA 2 with C34A, A35G, G36U, U46C, C48U
# B25: target 1 insA 3' of 11,insA 3' of 6 (mixed)
# RNA 1: B1 RNA 1
# RNA 2: B4 RNA 2 with A41U, U42A, G48A, C49G, U50C, A51U
# B26: target 1 insC 3' of 5,insU 3' of 2 (mixed)
# RNA 1: B1 RNA 1
# RNA 2: B4 RNA 2 with A41U, U43A, A44U, U45C, C47G, G48C, A51C, C52U
# B27: target 1 A9U,A18U (mixed)
# RNA 1: B1 RNA 1
# RNA 2: B2 RNA 2 with A34U, A43U, G45C, A50C
# B28: target 1 insC 3' of 22,insG 3' of 22 (mixed)
# RNA 1: B1 RNA 1
# RNA 2: B11 RNA 2 with A32G, U33C, G35U, C40A, U42G, A43U
# B29: target 1 U3A,A14C (mixed)
# RNA 1: B1 RNA 1
# RNA 2: B2 RNA 2 with A38C, G45C, U49A, A50C
# B30: target 1 insU 3' of 14,insA 3' of 6 (mixed)
# RNA 1: B1 RNA 1
# RNA 2: B4 RNA 2 with G39U, A41G, G48A, C49G, U50C, A51U
# B31: target 1 insG 3' of 22,insA 3' of 22 (mixed)
# RNA 1: B1 RNA 1
# RNA 2: B11 RNA 2 with C31G, U33C, G35U, C40A, U42G, A43U
# B32: target 1 insG 3' of 22,insG 3' of 16 (mixed)
# RNA 1: B1 RNA 1
# RNA 2: B3 RNA 2 with C31G, A32C, U33A, C34U, A39G, G40A, U42G, A44U, U45A
# B33: target 1 C2G,G12A (mixed)
# RNA 1: B1 RNA 1
# RNA 2: B2 RNA 2 with G40A, G45C, A50G
# Target: T1, EsCas13d, nuclease-dead
# Test: crRNA (strand 1, pre-loaded); Mg2+; 40 mM Tris-HCl pH 7.5, 150 mM NaCl, 6 mM MgCl2, 1 mM DTT, 0.1% Tween-20, 0.2 mg/ml BSA; 25 C; 10 min per concentration, then washed
# Settings: tags: His6-TwinStrep-SUMO cleaved; N-terminal SNAP kept (SNAP-Surface 488); label: 3' end held by stalled T7 RNA polymerase
row,Binder,Kd [nM]
1,B1,11.4 ± 0.5
2,B2,15.4 ± 0.9
3,B3,~80
4,B4,20.5 ± 1.2
5,B5,48 ± 9
6,B6,56 ± 24
7,B7,14.2 ± 1.1
8,B8,38 ± 5
9,B9,95 ± 8
10,B10,60 ± 7
11,B11,19.1 ± 2.2
12,B12,28.8 ± 1.5
13,B13,15.8 ± 1.5
14,B14,54 ± 18
15,B15,73 ± 25
16,B16,13.3 ± 0.7
17,B17,15.1 ± 0.7

row,Binder,Kd [nM]
1,B18,39.3 ± 2.6
2,B19,51 ± 6
3,B20,52 ± 23
4,B21,16.4 ± 0.8
5,B22,9.9 ± 0.4
6,B23,51 ± 7
7,B24,29.7 ± 2.9
8,B25,13.2 ± 1
9,B26,15.2 ± 0.6
10,B27,44.9 ± 3.5
11,B28,12.6 ± 0.6
12,B29,20.8 ± 1
13,B30,80 ± 32
14,B31,30.8 ± 2.9
15,B32,57 ± 8
16,B33,3.51 ± 0.18
